Here are results for 1 substance from patent publication US7696175.

In assay [1] the target is intracellular antigens (TNT) in paraformaldehyde fixed Raji lymphoma cells. As to the kind of experiment: fixed-cell radioimmunoassay on Raji cells, compared with the literature value for NHS76.
The target is the same in assay [2]. As to the kind of experiment: fixed-cell radioimmunoassay: 125I-labeled fusion protein on paraformaldehyde-fixed Raji lymphoma cells, Scatchard analysis, Ka = -(slope/n) with n = 2.

In the case of “B7.1/NHS76 fusion protein (from UniProt P33681 35-242)”, the affinity relative to parental NHS76 (fold of parental NHS76) in assay [1] is 0.14. Further, in assay [2], the Ka amounted to 2.15e+08 M⁻¹.
